In patent publication US7838294B2, “Inhibitors of the JNK signal transduction pathway and methods of use” (University of Massachusetts, priority 1997, dated 2010):
“Also recorded” adds a separate entry of the source. No end group written: not given here.

How the values were obtained:
Type in all cases: binding
[1] = target: T1, JNK2 (Homo sapiens, UniProt P45984); experiment: GST-fusion pull-down from cell lysates, Flag immunoblot: JNK2; conditions: 5 μg GST-fusion protein on glutathione-Sepharose, Flag-JNK2 lysate, one hour 4° C.
T1 construct: expressed in transfected cells
Description: (§1) To test whether JIP-1 binding to JNK is also isoform-dependent, a binding assay was utilized. Cell lysates (1 ml in TLB) containing JNK1, JNK2, or p38 MAP kinase, each tagged with the Flag epitope, were incubated with 5 μg GST-fusion proteins pre-bound to 10 μl glutathione-Sepharose. The GST fusion proteins used contain residues 127-202 (SEQ ID NO:15), 203-281 (SEQ ID NO:16), 164-240 (SEQ ID NO:17), or 127-281 (SEQ ID NO:4) of JIP-1. The GST-ATF2 fusion protein contains residues 1-109 of ATF2, and the GST-Jun fusion protein contains residues 1-79 of c-Jun. After incubation for one hour at 4° C. and three washes with TLB, bound proteins were detected by protein immunoblot analysis with the M2 monoclonal antibody, which is specific for the Flag epitope. Dérijard, et al., supra; Sluss et al., supra; Gupta et al., supra. […] This finding is consistent with the results of previous studies. In contrast, when GST-JIP-1 fusion proteins containing residues 127-202 or 127-281 of JIP-1 were tested in the assay, these proteins bound both JNK1 and JNK2.
(§2) The GST-JIP-1 fusion proteins containing various portions of the JIP-1 gene were used to define regions of JIP-1 that are required for JNK interaction. A GST-JIP-1 fusion protein containing residues 127-281 of JIP-1 bound both JNK1 and JNK2.
(§3) To more precisely define the JIP-1 sequence required for JNK binding activity, additional […] fusion proteins were constructed. These fusion proteins contained residues 135-202 (SEQ ID NO:18), 144-202 (SEQ ID NO:19), 154-202 (SEQ ID NO:20), 164-202 (SEQ ID NO:21), 127-143 (SEQ ID NO:22), 127-153 (SEQ ID NO:23), or 127-163 (SEQ ID NO:24) of JIP-1. Proteins containing residues 127-202, 135-202, 144-202, […], and 127-163 all bound both JNK1 and JNK2. Thus, JIP-1 residues 144-163 are important for the interaction of JIP-1 with JNK.

[2] = target: T2, JNK1 (Homo sapiens, UniProt P45983); experiment: GST-fusion pull-down from cell lysates, Flag immunoblot: JNK1; conditions: for binding to JNK1: 5 μg GST-fusion protein on glutathione-Sepharose, Flag-JNK1 lysate, one hour 4° C.; for level of binding to JNK1 compared with JNK2: GST pull-down, Flag immunoblot
T2 construct: expressed in transfected cells
T2 sequence (P45983 1-384 isoform P45983-2): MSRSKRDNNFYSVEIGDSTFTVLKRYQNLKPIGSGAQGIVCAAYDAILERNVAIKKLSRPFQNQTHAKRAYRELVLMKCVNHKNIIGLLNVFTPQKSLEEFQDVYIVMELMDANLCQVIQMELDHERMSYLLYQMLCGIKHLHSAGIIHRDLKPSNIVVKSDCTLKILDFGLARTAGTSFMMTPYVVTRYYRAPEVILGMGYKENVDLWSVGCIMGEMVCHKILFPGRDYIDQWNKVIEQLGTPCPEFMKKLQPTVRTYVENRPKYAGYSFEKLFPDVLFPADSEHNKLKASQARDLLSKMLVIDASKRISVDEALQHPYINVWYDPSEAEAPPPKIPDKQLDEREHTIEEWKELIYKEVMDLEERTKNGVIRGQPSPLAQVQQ
Description: as §1, §2, §3

[3] = target: T3, JIP-1-JNK interaction (JNK1) (Homo sapiens, UniProt P45983); experiment: Synthetic peptide competition of JIP-1-JNK interaction (GST-JIP-1 127-281 pull-down); conditions: for effect of peptide on JIP-1 binding to JNK1: peptide 0, 4, 8, 16, 32, and 64 μg/ml, GST-JIP-1 (residues 127-281); for inhibition of JIP-1 binding to JNK by peptide: synthetic peptides 64 μg/ml, JNK1 binding to GST-JIP-1 residues 127-281
T3 construct: expressed in transfected cells; GST-JIP-1 from a bacterial pGEX-3X vector
T3 sequence (P45983 1-384 isoform P45983-2): as above
Description: The effect of increasing concentrations (0, 4, 8, 16, 32, and 64 μg/ml) of a synthetic peptide corresponding to JIP-1 residues 148-174 (SEQ. ID NO:3) or a control peptide having a scrambled sequence (SEQ ID NO:12) on JIP-1-JNK interaction was examined. Peptides were synthesized using an Applied Biosystems machine. Cell lysates containing Flag epitope-tagged JNK were incubated with GST-JIP-1 (residues 127-281) prebound to glutathione-Sepharose. The beads were washed, and bound proteins were detected by protein immunoblot analysis with a Flag-specific antibody.
The JNK binding domain of JIP-1 contains three amino acids, Lys-155, Thr-159, and Leu-160, that are conserved in the JNK binding domains of ATF2 and c-Jun (FIG. 2). A hydrophobic amino acid, Leu, is found at residue 162 of JIP-1. ATF2 and c-Jun also contain hydrophobic amino acids (ATF2, Phe; c-Jun, Leu) in the position corresponding to residue 162 of JIP-1. To test if these conserved residues are involved in JNK binding, the wild type JIP-1 JBD (residues 148-174) was substituted with glycines in these positions to produce the peptides shown in FIG. 3 (SEQ ID NOs:7-11). The mutant peptides are identical to the wild type peptide except for the indicated glycine substitutions. The binding of JNK1 to GST, as well as a GST fusion protein containing JIP-1 residues 127-281, was examined in the absence and presence of the synthetic peptides (64 μg/ml). A peptide with a scrambled sequence (SEQ ID NO:12) was used as a control. […] In contrast, the control peptide caused no change in JNK binding.
Peptides suspected of having JIP-1 activity can be tested in the JNK binding assay described supra. Peptides are synthesized by methods that are well known to those skilled in the art; for example, using an Applied Biosystems synthesizer. Cell lysates containing Flag epitope-tagged JNK are incubated with GST-JIP-1 (residues 127-281) bound to glutathione-Sepharose, either with or without synthetic peptides (0, 4, 8, 16, 32 or 64 μg/ml), for one hour at 4° C. The beads are washed in TLB, and the bound proteins are detected by protein immunoblot analysis with a Flag-specific antibody, e.g., M2. Synthetic peptides with JIP-1 activity are those which inhibit the interaction of JIP-1 with JNK, as detected in this assay.

| Molecule | binding to JNK2 [1] | binding to JNK1 [2] | effect of peptide on JIP-1 binding to JNK1 [3] | inhibition of JIP-1 binding to JNK by peptide [3] | level of binding to JNK1 compared with JNK2 [2] |
| --- | --- | --- | --- | --- | --- |
| GST-JIP-1 residues 154-202: GST fusion protein containing residues 154-202 of JIP-1 (PKRPTTLNLFPQVPRSQDTLNNNSLGKKHSWQDRVSRSSSPLKTGEQTP; also: GST fusion; UniProt Q9WVI9 154-202, looked up, fragment) | bound | bound |  |  |  |
| SGDTYRPKRPTTLNLFPQVPRSQDTLN [JIP-1 residues 148-174, synthetic peptide corresponding to JIP-1 residues 148-174, core of the JBD] |  |  | dose-dependent decrease | dose-dependent inhibition |  |
| GST-JIP-1 residues 127-163: GST fusion protein containing residues 127-163 of JIP-1 (PKAESNQDPAPRSQGQGPGTGSGDTYRPKRPTTLNLF; also: GST fusion; UniProt Q9WVI9 127-163, looked up, fragment) | bound | bound |  |  |  |
| SEQ ID NO:12: control peptide having a scrambled sequence (NSLGTDDTQYSRRPPKVRQPNPTFTLL) [reference compound] |  |  | no effect | no change |  |
| GST-JIP-1 residues 144-202: GST fusion protein containing residues 144-202 of JIP-1 (PGTGSGDTYRPKRPTTLNLFPQVPRSQDTLNNNSLGKKHSWQDRVSRSSSPLKTGEQTP; also: GST fusion; UniProt Q9WVI9 144-202, looked up, fragment) | bound | bound |  |  |  |
| GST-JIP-1 residues 135-202: GST fusion protein containing residues 135-202 of JIP-1 (protein, UniProt Q9WVI9 135-202, looked up, fragment, GST fusion) PAPRSQGQGPGTGSGDTYRPKRPTTLNLFPQVPRSQDTLNNNSLGKKHSWQDRVSRSSSPLKTGEQTP | bound | bound |  |  |  |
| GST-Jun: GST fusion protein containing residues 1-79 of c-Jun (protein, left off: a dimerising Fc or GST, GST fusion protein containing residues 1-79 of c-Jun) MTAKMETTFYDDALNASFLPSESGPYGYSNPKILKQSMTLNLADPVGSLKPHLRAKNSDLLTSPDVGLLKLASPELERL |  |  |  |  | greater than binding to JNK2 |
| GST-JIP-1 residues 127-281: GST fusion protein containing residues 127-281 of JIP-1 (protein, left off: a dimerising Fc or GST) PKAESNQDPAPRSQGQGPGTGSGDTYRPKRPTTLNLFPQVPRSQDTLNNNSLGKKHSWQDRVSRSSSPLKTGEQTPPHEHICLSDELPPQGSPVPTQDRGTSTDSPCRRSAATQMAPPSGPPATAPGGRGHSHRDRIHYQADVRLEATEEIYLTP | bound | bound |  |  |  |
| GST-JIP-1 residues 127-202: GST fusion protein containing residues 127-202 of JIP-1 (amino terminal region) (protein, UniProt Q9WVI9 127-202, looked up, fragment, GST fusion) PKAESNQDPAPRSQGQGPGTGSGDTYRPKRPTTLNLFPQVPRSQDTLNNNSLGKKHSWQDRVSRSSSPLKTGEQTP | bound; also recorded: JNK binding activity was observed | bound; also recorded: JNK binding activity was observed |  |  |  |
| GST-ATF2: GST fusion protein containing residues 1-109 of ATF2 (protein, left off: a dimerising Fc or GST, GST fusion protein containing residues 1-109 of ATF2) MKFKLHVNSARQYKDLWNMSDDKPFLCTAPGCGQRFTNEDHLAVHKHKHEMTLKFGPARNDSVIVADQTPTPTRFLKNCEEVGLFNELASPFENEFKKASEDDIKKMPL |  |  |  |  | greater than binding to JNK2 |
| GST-JIP-1 residues 164-240: GST fusion protein containing residues 164-240 of JIP-1 (central region) (protein, UniProt Q9WVI9 164-240, looked up, fragment, GST fusion) PQVPRSQDTLNNNSLGKKHSWQDRVSRSSSPLKTGEQTPPHEHICLSDELPPQGSPVPTQDRGTSTDSPCRRSAATQ | No JNK binding was detected | No JNK binding was detected |  |  |  |
| GST-JIP-1 residues 203-281: GST fusion protein containing residues 203-281 of JIP-1 (carboxy terminal region) (protein, UniProt Q9WVI9 203-281, looked up, fragment, GST fusion) PHEHICLSDELPPQGSPVPTQDRGTSTDSPCRRSAATQMAPPSGPPATAPGGRGHSHRDRIHYQADVRLEATEEIYLTP | No JNK binding was detected | No JNK binding was detected |  |  |  |
